# Assay results: a protein production outcome set (Wang et al. 2014)
# Assay: label from the status in PepcDB records
row,Sequence,protein production
1,MTERFDCHHCNESLFGKKYILREESPYCVVCFETLFANTCEECGKPIGCDCKDLSYKDRHWHEACFHCSQCRNSLVDKPFAAKEDQLLCTDCYSNEYSSKCQECKKTIMPGTRKMEYKGSSWHETCFICHRCQQPIGTKSFIPKDNQNFCVPCYEKQHAMQCVQCKKPITTGGVTYREQPWHKECFVCTACRKQLSGQRFTARDDFAYCLNCFCDLYAKKCAGCTNPISGLGGTKYISFEERQWHNDCFNCKKCSLSLVGRGFLTERDDILCPDCGKDI,failed
2,MLINSEIISLSGSMYEDRSYQNEAIDFIASKLANYPGVALEAPTGSGKTMMALLGSLKYAYNGHLKILYLVRTNSQEEQVIRELRTISKNRKIRALPMQGRINLCILYKTADDLKEATAESLSKFCNSRKRQVMEGHQEACPYYTIKVRSKETKDFLFENLPTAEEFYEYAFTNNLCPYESIKASLSDADIVVAPYMYFLNKTVADRFLSHWGVSREQLIIVLDEAHNLPDIGRSLGSFRISIESLNRSEKEAQSFGDPELDRGVHVTDFIEMIRSTLERTIKERVKEDDVRIRFQEFKEYLMIMNKKSEKSIRDLNNYLYLFGEYVENEKEKAGKVPVSYCSSLAQRLEAMMDEDDAMYAAILSKSESGYIQASCLDPSSILSSLKESKTIHMSGTLEPFEFYSDVTGFDIPFRRIENVFPIENRFVSYYEGVSTKYDTLDENEIRKLASIIENIVNGVKRNTIVYFPSYAVMDKVIGSGLDFDFLQEKKNLDQTEFYDVVKKFRNGGKPLLAVSGGRLSEGMNFPGRELELILIAGIPFPRPDATNRALYDYYEMKYKKGWEYAVLAPAIIKIRQEIGRLIRGKDDHGACVILDKRAKQFRRFIPDLVKTDDPVNDINTFFSNFK,failed
3,YRATKLWNEVTTSFRAGMPLRKHRQHFKKYGNCFTAGEAVDWLYDLLRNNSNFGPEVTRQQTIQLLRKFLKNHVIEDIKGRWGSENVDDNNQLFRFPA,not failed
4,MKELPRGDLLSPKTEEKFKLTNKAKIFFRPYMDPPEMPSSEYPLWLCTGRVLEHWHSGTMTMRVPELYRAVPEALCYMHPEDAKKLGVKQNEAVWVESRRGKVKARLEHHHHHH,not failed
5,YSVTVKWGKEKFEGVELNTDEPPMVFKAQLFALTGVQPARQKVMVKGGTLKDDDWGNIKMKNGMTVLMMGSADALPEEPSAKT,not failed
6,MGNNKNLHGHLFALTANVMWGLMSPIGKSALQEFSAISVTTFRMVGAAAAFWILSIFCKQEHVDHRDMLKIFFASLFALVFNQGIFIFGLSMTSPIDASIVTTTLPIVTMIVAAIYLKEPITNKKVLGIFVGAMGALILIMSSQAASSGNGSLIGDLLCLVAQISFSIYLTVFKGLSQRYSAVTINKWMFIYASMCYIPFSYQDISVIQWTSIPMVAILQVLYVVLGGSFLAYLCIMTAQKLLRPTVVSMYNYMQPIVATIAAILMGIGSFGWEKGIAITLVFLGVYIVTQSKSKADFEKAGKEL,failed
7,MSHKISEYFANDPPSFFDELASKPKGNNLSTEGSSSSASSTSSAPNMMSNTFVGFFQPPEYVETPEAGEDSIKVGDDVRNLWELPRENEPGKLIMPGIHLQTDLADPISVAVTQHLGEAELSYRKILRVDDVTQDERGLRTLIHAGCYRTAVNLTGRLLTIYGQGYGRSGQPAKHSPHSLQLWFTRLALLAKLGEFELLNAEAEPFGQLTSPDVFYDFYPEMYNGKSGSIACFSFRLLLAELPIYLGKPHVALDRLSELHVTTREIKEHYLSLHNKAAEEFWQRRCERVLHSIINCGLMMKKFSMIDDIMEGTLLKRSNLSKEDRRSLYSAWGRIYLQIGDIFGAEQKIAVSRRLREINSAPDLRDLVDKGLIAVAKNDFPEAYVIFQKALHLDTGNTMILNNMGVCLLYAGKLKDAINLYERAINLNPQKSLNESLLVNLSTLYELESNNSKAKKYNLLRLINRYKPDLNISIEICLKLQTIN,failed
8,MKALLPGLYLLPVPIPYPLKTVNLYLLQGAGEVALVDTALGTRAARGALELHLAELGLCFQDVKTILLTHHHPDHYGLSGFFEGLGARVFLHEEEFARGHRFWREPEAFAEASWRLFLDHGTPEGALQGIRETVEKTRERVHPPQNPLPLRDGEALEVAGKRLRVLWTPGHADGHAAFYLEEEGVLLAGDALLEKVSPNVGLWAYTRENPLKDFLRSLDRLADLGARVAYAGHFGPIADVRQRAEELKAHHQARLEALLALLDGPKTAWELSLHLFPQELDPAGRRFAFAETLAHLEYLREEGAVGRGGPPYRYFRR,not failed
9,MSLKVHHIGYAVKNIDSALKKFKRLGYVEESEVVRDEVRKVYIQFVINGGYRVELVAPDGEDSPINKTIKKGSTPYHICYEVEDIQKSIEEMSQIGYTLFKKAEIAPAIDNRKVAFLFSTDIGLIELLEKEGHHHHHH,not failed
10,MSSWPQERRDSLLELVRKSREIFSSMKPLLRVGDRPRAVFVGDTHGAFMVTKYVFENFSDYDAIVFLGDYVDREPYGLENLEIILSHFVENKDKVIVLRGNHESPLTNEYYGFRAEVREKLGDENYKEFVDLFSEMPYAAIVNNYLCVHGGIARNLKNVQQIEELKKPDIIPEDEIAFEMLWNDPREELDGFVPNIRGEGTFFYGKDVTLEFLKENSLKGIIRGHEVADGFRSEIDERVITVFSSRYHKMRAGILLQDGEKFNMVYLDEEFLLKGDKS,failed
11,MDWYLKVLKNYVGFRGRARRKEYWMFILVNIIFTFVLGLLDKMLGWQRAGGEGILTTIYGILVFLPWWAVQFRRLHDTDRSAWWALLFLIPFIGWLIIIVFNCQAGTARRKPLWTRSKTGTLKQICSPDV,failed
12,GVTYLLAKRKILYFEAVESKIFVYTEKDVYETTWKLYELEEKFKDSSFFRCSKSMILNIEWIEKIAPGFHGKFEASLFNREKVIISRQYAKILKQKLNLGGKGK,failed
13,MRLKPLPSRPLLGGVLFFALVFAFAGINPWGGGHEGVWNAPREGGMALFALAALAGVLLERRGRGLSVGGGALLALLASAGFLLAGAASTLLSPQPIWSWTGYPSVGDGLRFWALGVAFAWAVFLALETRVLSPRGLFGALLLALGLHALAVFPQVVDWKLDYTQTQGQTYVRCFDRERTDCYENPNATASGIYRGQMPIGLTSHRGHAAGVLALLGLVAAGLYLRSPRPGLLLLFGLGALALWFTQTRGGWLALWGTLALLALGLTWKRPGRLRPALALFLVGALSYGLYLALGQMGVQEPRRFPELGASFAEANAYSSGRLELWRKALAALPLRPWLGWGFDGYARASPHAVDWNGEDRRFVPAALSLPVRLVQGEDRLFYLEDPTGLRLLAPAPYAKAHNLFLDLLLSVGVLGGAAYLLWLGAALRQASWAKLPFALAVAGYLLYGLTWYDSVHVTPLALLALGALVTREEVWRGA,failed
14,DISKITDVAVMTVEGANDDISAPGQCIAALDLCTGLADSKKANHLEPGAGHYGIFAGRSWRDNIRPLVIDFMNTNSRKGKSLRPANKNSAA,failed
15,MAQRVANIMKPFATGLVVGKFAPLHCGHEKLINTALAQCEELFIISYSVPEMPDCEPEKRLTWLQVRFPQATILVLTPELVARYNLPAIPHNDADADIHRHYVATLCLQILRCRPHAVFTAEDYGDGFANVLARRFAQPVEHVRMARPVGDEAPSGTLIRSDVHRYRYMLANDVYYSFVRRICLLGGESTGKSTLSKALADGLDTVYVAEFGRDYWEEKNGILTADDLLHIACEQVRREQQAEANHYLICDTSPLTTLFYALDQYGHAPQELHQLAEREYSLVVLCGAEFPFVQDGTRQGEVFRARQQVWYEQELSRRNIPYLSVSGPLQERVEQILRQLPD,failed
16,MADWLIGLIMGAVEGLTEFLPVSSTGHMILTGHLIGFDDERAKVFEVVIQLGSILAVVVIFWKRLWSLVGIGKVTDGPSLNLLHIIIGMIPAGVLGVLFHSTIKEGLFGPGPVVISLVAGGILMIVAEKFSKPSTARTLDEITYKQAFTIGMFQCLALWPGFSRSGSTISGGLLARVSHTAAAEYTFILAVPMMVAASGLDLIKSWDVLSSADITLFVTGFVTAFVVAMLAIVSFLKLLSRVKLTPFAYYRFILAAVFYFFIM,failed
17,MRYGLRVEAITLWILGGLASLEAIPKEWNRELVIALAGPAVSILTGLACYAALFALPASAQVTLFVIGWLAVTNIFLAVFNMLPAFPMDGGRVLRALLARTRPYATATRIAARIGTGFAVLFAVVGVLSFSPLLLLLALFVYGAASSESRTVALAALLDGLSVDDVASPLDATIEANASVEDLVDRMFADRRTEFAVTRGGDVVGVVTVDDFRELSKAEREADTVADLMEADLPRFPAAMAAFDALVELDTARASAAFVDGPEGTRVVSRDDFSSAMEMRRLVDSPEPF,failed
18,MNKGKFALLFTFAACFAVIVFFWLLAVPPENFTADRIVMVLLISPIFAILLAFNLSRFLKQHGYSLRQVHVALEQNIADFIYEFQRLVFIHLMPIAFLGALIFYYGEFTPAIAEFLSLFALIFALSPLLFLGISFFVAMLQVYERVRKKSLLRANFFNFWIWIHLFVILLIIISKVLVQPSELPFQKAYFKALNDGVFNLLIIATMNAIFGVTGRMVAREKFPILLHLSIPLVNSFVAVKILMA,failed
19,MAVRVCCHAPPGVSNHLFTFCAGNLTTGFSGGSVTSQKGGAAGLPTCSRRCPRGCLPGSDPLPRHPRRYAPPVTPPVTPPTTPAPRSRARMLELVFPKDTNYHGTAFGGWVLALMDKAASVAAVRHAGGNVVTARMDGVDFHVPIRVGDAVALDARVIRVGRSSMTIRVDVYRENMASGEQQLATGGLFTFVALGEDGKPRPVPPLPEGSTDSEQPDYEARPLEHHHHHH,failed
20,MSEEQHILEVLQSDDAEQVREAAYSAGELRLEAAVPHLVRHLQSQNIGVQEAVDNALRKIGGAAAVAGVIPLLRSDDAPIRNISMDILRDIGRDEFDALKQLLHDEDPDIRIFASDILGTSGSILAVPALCEALLRDPEVNVRYQAAVSLGTLAFPEAADCLNKAMQDEEWVQFSVIEALIKIRAESSVNALVKALDTTSDLVASMIVDALGEMGNLKAVPLLLKRIEKSPTPLRNKIVRAIVSILGKKSLSLLGEREQQRLGAYLLAALDDEDEEVQDAAMVGLASLGQAEATVAVLRLAARLDPDRDHERLEAAIRCIGGIGFNEAVEEALSDENESTILMVVEAAADMNPAEIVPALKRIFWDKGRDAQRAIATQLARIASLEDVDFFLDLLERAEDAHVIKAALHFLGHRARPAGVGERMLALLDHPYDDVKEAALEACIALQDVSLCASFRERFHSGDPLQRMMATYAMGRLDVDGNLDVLREALVDDVPDVRKVALEALAGTCPITPEHLELVVPLMHDPVREVRLALVDLFGACPEESVIGHLLEALDDEDDWVRVRAIEALGRLGRKECVTPLIERVDGAGNLVLLKIIEALGSIGGNMAFRALLALMEHEDPEIQQAAEDAVARLGEQDSEGE,failed
21,MLNIQNYSASPHPGIVAERPQTPSASEHAEIAVVPSTTEHRGTDIISLSQAATKIQQAQQTLQSTPPISEENNDERTLARQQLTSSLNALAKSGVSLSAEQNENLRSTFSAPTSALFSASPMAQPRTTISDAEIWDMVSQNISAIGDSYLGVYENVVAVYTDFYQAFSDILSKMGGWLSPGKDGNTIKLNVDSLKSEISSLINKYTQINKNTILFPSQTGSGMTTATKAEAEQWIKELNLPDSCLKASGSGYVVLVDTGPLSKMVSDLNGIGSGSALELDNAKYQAWQSGFKAQEENLKTTLQTLTQKYSNANSLYDNLVKVLSSTISSSLETAKSFLQG,failed
22,QHTEERELKKRLMNTARTVSEMTEVKEALARKKQTEAVRHAVEEIRMINEADYIVVMDMNHIRYTHPVSTSIGKKSEGADEEAAFAEHIYFSEAKGEIGTAVRAFYPVKDQDLNQIGVVLVGKTLPGIAD,failed
23,MCLAIPSVVIDIFEEDGEKYALAEYKGVKQKAKLALIEGVEIGDYVLIHTGYALEKMSEDEAKLSLDAWEELFDVLDEM,failed
